Laboratory results taken from patent publication US8221990B2, “Screening GPR12 receptor for substances having Nesfatin-1-like action, or which regulate Nesfatin-1 action” (Teijin Pharma Limited, priority 2007, dated 2012).
Values belong to the molecule of their own block, whether it stands above or below them.

Experiments:
[1] = target: T1, GPR12 (Mus musculus, UniProt P35412); experiment: Expression of a CRE-reporter gene (pCRE-Luc luciferase) in NB41A3 cells expressing GPR12 endogenously; type: cell-based; conditions: NB41A3 cells transfected with pCRE-Luc, 10^-12 M to 10^-8 M, 16 hours
T1 construct: in which GPR12 was endogenously expressed; endogenous in cells; host or cells: NB41A3 cells (ATCC-CCL147), mouse brain neuroblastoma
T1 sequence (P35412 1-334): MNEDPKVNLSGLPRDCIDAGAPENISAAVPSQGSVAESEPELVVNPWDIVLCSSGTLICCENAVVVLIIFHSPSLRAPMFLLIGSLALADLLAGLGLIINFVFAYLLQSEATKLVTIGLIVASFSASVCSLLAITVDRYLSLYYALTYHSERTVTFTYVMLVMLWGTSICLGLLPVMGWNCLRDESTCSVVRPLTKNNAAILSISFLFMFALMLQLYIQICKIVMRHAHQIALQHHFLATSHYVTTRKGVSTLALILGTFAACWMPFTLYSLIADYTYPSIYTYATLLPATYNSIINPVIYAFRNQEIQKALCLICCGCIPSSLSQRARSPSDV
Protocol: NB41A3 cells (ATCC-CCL147), a cell strain derived from mouse brain neuroblastoma, in which GPR12 was endogenously expressed were used. The confluent NB41A3 cells were recovered in a 10-cm dish, plated onto 10 cm-dishes after dividing the cell colony in four quarters, and cultured for one day in Ham's F12K medium. The cells were transected with 5 μg of the reporter plasmid pCRE-Luc (Stratagene Corporation, Catalog No. 219074) in which TATA-BOX and luciferase were incorporated into downstream of CRE by a calcium phosphate method. The cells were washed with Ham's F12K medium 16 hours after the transfection. Ham's F12K medium containing no test substance (Vehicle), Ham's F12K medium containing 10^−10 M of Nesfatin-1 M30 (Mid-Segment: SEQ ID NO: 11), Ham's F12K medium containing 10^−10 M of a modified peptide M30_Ag-A (SEQ ID NO: 50) (M30_Ag-A), and Ham's F12K medium containing 10^−10 M of a modified peptide M30_MSH-A (SEQ ID NO: 51) […] were added to the cells, and the resultant mediums were cultured under the conditions of 37° C. and 5% CO2 for 16 hours. After the culturing, the cells were washed twice with phosphate-buffered saline (PBS), lysed with 4 mL of lysis buffer (an aqueous solution containing 25 mM of glycylglicine (pH 7.8), 15 mM of magnesium sulfate, 4 mM of glycol ether diaminetetraacetic acid (EGTA), 1 mM of dithiothreitol (DTT), and 1% (volume/volume) of Triton X-100). […] After adding 200 μL of 0.2 mM of d-luciferin to the diluted cell lysate, the luminescence was measured for 10 seconds by a luminometer, and the amount of luminescence (units) was determined. Further, the amount of protein in each cell lysate was measured by BCA™ Protein Assay Kit-Reducing Agent Compatible (Pearce, Catalog No. 23250), and the value obtained by dividing the amount of luminescence (units) by the amount of protein (μg) in a sample was determined as a luciferase activity. […] The cells were cultured for 16 hours, and then the level of luciferase activity was also determined.

[2] = target: T2, mouse GPR12 (Mus musculus, UniProt P35412); experiment: cAMP production in CHO-K1-cell stable expression system (CHO-K1-GPR12); type: cell-based; conditions: CHO-K1-GPR12, peptide 10^-9 M, Forskolin 10^-5 M, 30 minutes
T2 construct: expressed in transfected cells
T2 sequence (P35412 1-334): T1 sequence (P35412 1-334)
Protocol: The preparation of cells stably expressing GPR12 was conducted by a conventional method, and hereinafter described briefly. A vector (pcDNA3.1-GPR12) in which a gene (cDNA) encoding mouse GPR12 (SEQ ID NO: 8) was inserted at the downstream of a CMV promoter of pcDNA3.1 (TM) (Invitrogen Corporation) was prepared, 10 μg of the vector was mixed with 250 μL of medium OPTI-MEM™ (Invitrogen Corporation), and 10 μg of Lipofectamine™ 2000 Reagent (Invitrogen Corporation) was mixed with 250 μL of medium OPTI-MEM™, 5 minutes later both mixtures were mixed, and the resultant mixture was left over at room temperature for 20 minutes to prepare a transfection reagent. Chinese hamster ovary cells (CHO-K1) [ATCC Cat. No. CCl-61] plated onto a 6-well plate at 1.5×10^6 cells/well on the previous day in advance were washed with medium OPTI-MEM™ once, and the above-mentioned transfection reagent (vector and Lipofectamine™ 2000 Reagent) was added to the cells dropwise to perform transfection. The resultant transfected cells were incubated at 37° C. for 5 hours in a CO2 incubator, and then the medium was replaced by Ham's F12 medium. Further, the next day the medium was exchanged with Ham's F12 medium containing 100 μg/mL of Geneticin® (Invitrogen Corporation), and furthermore the next day the medium was exchanged with the same medium containing 200 μg/mL of Geneticin®, and the following day the medium was exchanged with the same medium containing 700 μg/mL of Geneticin®, and after that, culturing was continued under the conditions of 37° C. and 5% CO2 in a medium containing Geneticin® at the same concentration. […]
The measured intracellular cAMP level was evaluated in terms of a ratio (Fold) of each intracellular cAMP level with respect to the mean of the intracellular cAMP level in the (−) group that is set as unity, in which CHO-K1-GPR12 cells were cultured in the medium containing no peptide.

[3] = Amount of food intake in a mouse after intraperitoneal administration; type: in vivo; conditions: C57BL/6J male mouse, 0.25 nmol per gram of body weight, 0 to 3 hours
Protocol: A 7-week-old C57BL/6J strain male mouse (CLEA Japan, Inc.) was used as an experimental animal. After purchasing the mouse, the mouse was raised at 22° C. in cycles of the 12-hour light period from 6 a.m. to 6 p.m. and the 12-hour dark period from 6 p.m. to 6 a.m. on the next morning with free access to pelleted feed (CLEA Japan, Inc., CE-2).
A 5 nmol aliquot of Nesfatin-1M30 (Mid-segment, SEQ ID NO: 11), M30_Ag-A (SEQ ID NO: 50), or M30_MSH-A (SEQ ID NO: 51) was dissolved in each 100 μL of saline, and each of the resultant solutions was administered intraperitoneally to a C57BL/6J mouse at a dose of 0.25 nmol per gram of body weight of the mouse. In the control group, only saline (Vehicle) was administered. Each mouse (5 mice in each group) was intraperitoneally given a single injection of a sample using a tuberculin syringe with 26 G needle, immediately before the dark period (6 p.m.).
Each mouse administered was placed in an individual cage, and the amount of food intake was determined by measuring the decreased amount of the pelleted feed during the period from 0 to 3 hours after the administration of a test substance. In the mouse administered with each test sample, the amount of food intake during 3 hours after the administration (g/3 h) is shown in FIG. 6.

[4] = target: T3, mGPR12 (Mus musculus, UniProt P35412); experiment: cAMP production in HeLa-cell transient expression system; type: cell-based; design: expressed in transfected cells; host or cells: HeLa cells (transient, lipofection); conditions: mGPR12-transiently expressing HeLa cells, ligand 10^-6 M
T3 sequence (P35412 1-334): T1 sequence (P35412 1-334)
Protocol: A GPCR expression vector prepared in Example 4 was introduced into HeLa cells by lipofection and transiently expressed.
HeLa cells were peeled off using trypsin EDTA and recovered, and plated onto a 6-well plate with 7×10^5 cells/2 mL/well to perform overnight culture using a CO2 incubator. The next day, a plasmid solution was prepared by adding 4 μg of plasmid into 250 μL of a serum-free Opti-MEM medium. On the other hand, a Lipofectamine 2000 solution was prepared by adding 10 μL of Lipofectamine 2000 (Invitrogen Corporation) into 250 μL of the serum-free Opti-MEM medium. These solutions were incubated at room temperature for 5 minutes, and the Lipofectamine 2000 solution was added bit by bit into the plasmid solution. The resultant mixture was incubated at room temperature for 20 minutes to prepare a solution for lipofection. […]
The 5× Ligand solution was added at 20 μL/well so that the final concentration may become 10^−6 M, and the plate was incubated in a CO2 incubator for 30 minutes. […] Further, in order to lyse the cells completely, the cells were frozen once at −20° C. and lysed again, and then the intracellular cAMP concentration was measured using cAMP-Screen System (Applied Biosystems, T1500).

concentration-dependent enhancement of the luciferase activity [1]: not found
intracellular cAMP level compared with the group (-) cultured in medium containing no peptide [2]: hardly elevated
Molecule: M30_Ag-A: human Nesfatin-1M30 with the 11th (Leu) and 13th to 17th residues from the N-terminus substituted with alanine, SEQ ID NO: 50 (PDTGLYYDEYAKAAAAALETDKHFREKLQK; Synthetic M30_Ag-A peptide)
amount of food intake during 3 hours after the administration compared with control group (Vehicle) [3]: no difference

concentration-dependent enhancement of the luciferase activity [1]: observed
intracellular cAMP level compared with the group (-) cultured in medium containing no peptide [2]: about 10 fold
Molecule: M30_MSH-A: human Nesfatin-1M30 with the 22nd to 25th residues from the N-terminus substituted with alanine, SEQ ID NO: 51 (PDTGLYYDEYLKQVIDVLETDAAAAEKLQK; Synthetic M30_MSH-A peptide)
amount of food intake during 3 hours after the administration compared with control group (Vehicle) [3]: significant decrease of the food intake

B1: mouse Nesfatin-1: recombinant mouse Nesfatin-1 (82 amino acids) expressed in Escherichia coli as a GST-His fusion protein and cleaved by thrombin (protein)
chain: VPIDVDKTKVHNTEPVENARIEPPDTGLYYDEYLKQVIEVLETDPHFREKLQKADIEEIRSGRLSQELDLVSHKVRTRLDEL
cAMP production ([4]; with Forskolin addition (2 μM)): increase in cAMP production was confirmed
cAMP production ([4]; without Forskolin addition): increase in cAMP production was confirmed
